# Assay results: US20250197503A1, “ANTI-HUMAN PD-Ll AND TLR7 DOUBLE-TARGETING NANOBODY CONJUGATE DRUG AND USE THEREOF IN RESISTING TUMOR” (SHANGHAI INSTITUTE OF MATERIA MEDICA , CHINESE ACADEMY OF …, priority 2022, published 2025)
# Biological target: human PD-L1 (human) (UniProt Q9NZQ7)
# Assay: FACS blocking of human PD-1/PD-L1 binding
# Chain of human PD-L1 (human) (Q9NZQ7 19-290): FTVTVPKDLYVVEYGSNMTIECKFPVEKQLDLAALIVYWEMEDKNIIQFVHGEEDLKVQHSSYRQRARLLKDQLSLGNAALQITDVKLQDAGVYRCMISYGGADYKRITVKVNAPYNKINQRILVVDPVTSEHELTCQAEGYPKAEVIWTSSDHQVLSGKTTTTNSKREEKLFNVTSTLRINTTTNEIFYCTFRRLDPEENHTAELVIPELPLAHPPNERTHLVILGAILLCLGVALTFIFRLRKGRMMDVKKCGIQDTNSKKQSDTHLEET
substance,measurement,value
KN035,IC50,0.208 µg/mL
